Laboratory results reported in the supplement of paper PMC9170038.

System: MS2 coat protein
Assay: apparent KD of MS2 coat protein; designed switch direction (-1 OFF switch, 1 ON switch): 1; higher = weaker reporter binding
Summary of the method: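 Transcription of designed RNA switches on Illumina chips was done by stalled E. coli RNA polymerase. SNAP-549-labelled MS2 coat protein was then titrated in doubling steps from 0.7 or 1.5 nM to 3 µM, with steps of 0.8–1.5 h at the lowest and 10–20 min at the highest concentration. The per-design median over clusters of curve-fitted normalised fluorescence is reported as apparent KD.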

[1] = input ligand: microRNA oligo, concentration not stated
[2] = Eterna round: R95, input ligand: FMN 200 uM
[3] = Eterna round: R95, input ligand: microRNA oligo, concentration not stated
[4] = Eterna round: R95, input ligand: none

In the case of “AAUUUAAUACAUGAGGAUCACCCAUGUAAUACUUGUAAGAUCAAGGAUAUCAGCUCGAAUAGAGCUGAGAAGGUGAUCACAUGU [SSNG3/19-D1] (Eterna round: R96, puzzle: Same State NG 3)”, the “apparent KD of MS2 coat protein” value [1] is reported as 24.9 nM.
“ACAAGCUUUUUAGGAAGUGAAGGGAGGGAACAUGAGGAUCACCCAUGUAAGUGGAAUGAAGAAGGAGCACGUCUUAU [JR_SHM208A_Sub097] (puzzle: Sensor for hsa-mir-208a)” was tested, and the “apparent KD of MS2 coat protein” value [2] was 32.7 nM, the “apparent KD of MS2 coat protein” value [3] was 26.6 nM and the “apparent KD of MS2 coat protein” value [4] was 43.1 nM.
“ACAUGACAUGAGGAUCACCCAUGUCGAUAAAAGCAAGGAUAUGGGCCCGAGUCGUUCGGACCAGAAGGUGCGUCUC [Orso] (Eterna round: R96, puzzle: Same State 1)” was tested, and the “apparent KD of MS2 coat protein” value (input ligand: FMN 200 uM) was 18.3 nM, the “apparent KD of MS2 coat protein” value [1] was 16.3 nM and the “apparent KD of MS2 coat protein” value (input ligand: none) was 23.8 nM.
With “ACAUGAGACAGAGGAUAUGUUGUACCUACAUGUGACAUGAGGAUCACCCAUGUGGUAAGUAUGAUACAGAAGGCUGAGAUAUGU [Equivalance 64 - Jieux - Same State NG 2] (Eterna round: R96, puzzle: Same State NG 2)” the “apparent KD of MS2 coat protein” value (input ligand: FMN 200 uM) was 15 nM, the “apparent KD of MS2 coat protein” value [1] was 18.3 nM and the “apparent KD of MS2 coat protein” value (input ligand: none) was 24.2 nM.
For “ACAUGAGAUUGAGGAUAUAUUGUACCUACAUGUGACAUGAGGAUCACCCAUGUGGUAAGUAUGACAUAGAAGGCAAAGAUAUGU [Equivalance 81 - Jieux - Same State NG 2] (Eterna round: R96, puzzle: Same State NG 2)”, the “apparent KD of MS2 coat protein” value (input ligand: FMN 200 uM) was 87.1 nM, the “apparent KD of MS2 coat protein” value [1] was 54.1 nM and the “apparent KD of MS2 coat protein” value (input ligand: none) was 74.4 nM.
With “ACAUGAGGAUCACCCAUGUGAAAAGACCUAGAGGUGAAGCCGCAGGAUAUAUCACAAACGAGAAGAUAGAAGGGCGUACGCAUG [Eternabot solution 9] (Eterna round: R96, puzzle: Same State NG 3)” the “apparent KD of MS2 coat protein” value (input ligand: FMN 200 uM) was 89.7 nM, the “apparent KD of MS2 coat protein” value [1] was 60.5 nM and the “apparent KD of MS2 coat protein” value (input ligand: none) was 72.1 nM.
With “ACAUUUAGCUCGUGCACAUGAGGAUCACCCAUGUUCAGUUCACAGGAUAUCUAGUCAAACGGAUCGGAGAAGGGUGGCAGGAGC [Quceon] (Eterna round: R96, puzzle: Same State NG 3)” the “apparent KD of MS2 coat protein” value (input ligand: FMN 200 uM) was 39.9 nM, the “apparent KD of MS2 coat protein” value [1] was 121 nM and the “apparent KD of MS2 coat protein” value (input ligand: none) was 123 nM.
With “ACGCAAAAUGGAGGAUAUGGAGCCUUAUUGGCUCCAGAAGGUCAAAACAUGAGGAUCACCCAUGUGCGGUGGUCUAAUGACCAC [Eli NG1ss - 46] (Eterna round: R96, puzzle: Same State NG 1)” the “apparent KD of MS2 coat protein” value (input ligand: FMN 200 uM) was 41.5 nM, the “apparent KD of MS2 coat protein” value [1] was 109 nM and the “apparent KD of MS2 coat protein” value (input ligand: none) was 172 nM.
“ACGCAGCUGGGUGAGGAUAUCGGUGGUAAAACAUGAGGAUCACCCAUGUCCGAAGCUCGGACUUCCGAGAAGGCGCCCGGCCGCA [Atbeatve] (puzzle: Same State 2)” was tested, and the “apparent KD of MS2 coat protein” value [2] was 14.6 nM, the “apparent KD of MS2 coat protein” value [3] was 65.2 nM and the “apparent KD of MS2 coat protein” value [4] was 83.1 nM.
In the case of “ACGUGGGUAUCACAGGAUAUACUCAUAACUACAUGAGGAUCACCCAUGUAGCGGUAUUCCGGUGCGUAGAAGGGUGAUGGACCAC [Same State 2 - Mod of Artece] (puzzle: Same State 2)”, the “apparent KD of MS2 coat protein” value [2] is reported as 13.3 nM, the “apparent KD of MS2 coat protein” value [3] is reported as 11.6 nM and the “apparent KD of MS2 coat protein” value [4] is reported as 19.9 nM.
For “ACUAUUAAUGCAGGAUAUGAUUAACAUGAGGAUCACCCAUGUGGUGUUGUGAGUAAGGAGAGUGAUCAGAAGGGCAUUUUUUUU [JMF's solution 37] (Eterna round: R96, puzzle: Same State NG 2)”, the “apparent KD of MS2 coat protein” value (input ligand: FMN 200 uM) was 992 nM, the “apparent KD of MS2 coat protein” value [1] was 466 nM and the “apparent KD of MS2 coat protein” value (input ligand: none) was 629 nM.
For “ACUUAGUACAAUUUAGAUCUACAUGAGGAUCACCCAUGUACUGAGGAUAUCAGCUCGUUUAGAGCUGAGAAGGCAGUAGUACUA [SSNG3/9-A3] (Eterna round: R96, puzzle: Same State NG 3)”, the “apparent KD of MS2 coat protein” value (input ligand: FMN 200 uM) was 46.7 nM, the “apparent KD of MS2 coat protein” value [1] was 26.2 nM and the “apparent KD of MS2 coat protein” value (input ligand: none) was 61.9 nM.
With “ACUUGCUUUUUGCUCGUAUAUUGUCCGUUACAUGAGGAUCACCCAUGUGUAUAUUAUGUGUUGUUUUUGAUACGUGU [JR_SHM208A_Sub069] (puzzle: Sensor for hsa-mir-208a)” the “apparent KD of MS2 coat protein” value [2] was 36.2 nM, the “apparent KD of MS2 coat protein” value [3] was 33.9 nM and the “apparent KD of MS2 coat protein” value [4] was 43.7 nM.
“AGAAAACAUGAGGAUCACCCAUGUAGAAAUAUGGGAGGAUAUACAAAGACGAAAGUCAGAGUAGAAGGCCUAAAAA [salish99-SS1-085] (Eterna round: R96, puzzle: Same State 1)” was tested, and the “apparent KD of MS2 coat protein” value [1] was 46.6 nM.
In the case of “AGAAAAGUUUACGAGGAUAUGUUCCGCAUAACAUGAGGAUCACCCAUGUGAACAAGAAAGGCGACGCAGAAGGCGUGAGCAAAAG [Mat - Same State 2 - Mod of UCT - D98] (puzzle: Same State 2)”, the “apparent KD of MS2 coat protein” value [2] is reported as 38.8 nM, the “apparent KD of MS2 coat protein” value [3] is reported as 82.1 nM and the “apparent KD of MS2 coat protein” value [4] is reported as 116 nM.
“AGACACAUGAGGAUCACCCAUGUUACGAGCUUAGCUCGGACACAGGAUAUCCGGUCCUAGAGACCGGAGAAGGGUGCCUGAUAA [Zara MOD3] (Eterna round: R96, puzzle: Same State NG 3)” was tested, and the “apparent KD of MS2 coat protein” value (input ligand: FMN 200 uM) was 568 nM, the “apparent KD of MS2 coat protein” value [1] was 678 nM and the “apparent KD of MS2 coat protein” value (input ligand: none) was 765 nM.
For “AGACAUGAGGAUCACCCAUGUAUACACUGUAUCAGUGUAACAUAGGAUAUCCACCGCCAUGCUGUGGAGAAGGAUGAAACGGGC [Matearen] (Eterna round: R96, puzzle: Same State NG 3)”, the “apparent KD of MS2 coat protein” value (input ligand: FMN 200 uM) was 175 nM, the “apparent KD of MS2 coat protein” value [1] was 111 nM and the “apparent KD of MS2 coat protein” value (input ligand: none) was 99.5 nM.
“AGAGAGGAAGCUGAGGAUAUCGUAAGGAGGACAUGAGGAUCACCCAUGUGUGUGGAAUUGGAGGACGAGAAGGCAGAGGAGUGGG [JR_SS2_Sub055] (puzzle: Same State 2)” was tested, and the “apparent KD of MS2 coat protein” value [2] was 33 nM, the “apparent KD of MS2 coat protein” value [3] was 35.2 nM and the “apparent KD of MS2 coat protein” value [4] was 34.6 nM.
For “AGAGCCGGCACUGAGGAUAUUCAUAUUAAAACAUGAGGAUCACCCAUGUAGGCCAGAAGGCCUUGGGAGAAGGCAGGUCGGCUCA [Mat - Same State 2 - Mod of UCT - D58] (puzzle: Same State 2)”, the “apparent KD of MS2 coat protein” value [2] was 25.2 nM, the “apparent KD of MS2 coat protein” value [3] was 212 nM and the “apparent KD of MS2 coat protein” value [4] was 484 nM.
In the case of “AGAUCAUGACGAGGAUAUGGUACAUGAGGAUCACCCAUGUAUGUACCACGACGGAAACGUCGAAUCCAGAAGGCGUCGUGGUCA [Mat - Same State NG 2 - JL mod - D22] (Eterna round: R96, puzzle: Same State NG 2)”, the “apparent KD of MS2 coat protein” value (input ligand: FMN 200 uM) is reported as 27.7 nM, the “apparent KD of MS2 coat protein” value [1] is reported as 115 nM and the “apparent KD of MS2 coat protein” value (input ligand: none) is reported as 167 nM.
With “AGCAAAAUAAGCAAGGAUAUGUAAUUUGGCACAUGAGGAUCACCCAUGUCAAUCCAUUUUUUUGAACAGAAGGUGCAUUUUUUUU [ak first solve] (puzzle: Same State 2)” the “apparent KD of MS2 coat protein” value [3] was 36.4 nM.
With “AGCAUACAUGAGGAUCACCCAUGUCAACGUAGUCGAGGAUAUGGGCAGCCGUGAGGCGAACCAGAAGGCGAAUUGA [Mat - Same State 1 - Mod of JL - D3] (puzzle: Same State 1)” the “apparent KD of MS2 coat protein” value [2] was 23.7 nM, the “apparent KD of MS2 coat protein” value [3] was 34.6 nM and the “apparent KD of MS2 coat protein” value [4] was 38.9 nM.
With “AGCCGAGACUGAGGAUAUUUUAAUCUACAUGAGGAUCACCCAUGUAACAACACGUGGUAGUGAUAGAAGAAGGCGGCUCGGCGC [Omei SS(NG)2 Cv1] (Eterna round: R96, puzzle: Same State NG 2)” the “apparent KD of MS2 coat protein” value (input ligand: FMN 200 uM) was 176 nM, the “apparent KD of MS2 coat protein” value [1] was 162 nM and the “apparent KD of MS2 coat protein” value (input ligand: none) was 386 nM.
